Source: patent US12383631 (BRIGHT PEAK THERAPEUTICS, dated 2025)
Several values for one entry are separate records, joined by “and”; a condition that tells them apart may be missing. Identical values can stand only once.

T1: human IL-18BP-His (human, UniProt O95998 31-194, limits assumed)
T1 construct: also called His-tagged human IL-18BP; not shown: His tag
T1 sequence (looked up): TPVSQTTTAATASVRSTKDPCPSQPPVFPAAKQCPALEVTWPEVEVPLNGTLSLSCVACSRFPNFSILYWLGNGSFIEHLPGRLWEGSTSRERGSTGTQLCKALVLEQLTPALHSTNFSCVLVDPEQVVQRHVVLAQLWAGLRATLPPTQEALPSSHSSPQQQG

T2: IL-18 receptor (IL-18Rα/IL-18Rβ) on cells (HEK-Blue IL18R reporter cells, NK-92, KG-1) (human, UniProt Q13478 19-541; O95256 20-599)
T2 sequence (looked up) 1: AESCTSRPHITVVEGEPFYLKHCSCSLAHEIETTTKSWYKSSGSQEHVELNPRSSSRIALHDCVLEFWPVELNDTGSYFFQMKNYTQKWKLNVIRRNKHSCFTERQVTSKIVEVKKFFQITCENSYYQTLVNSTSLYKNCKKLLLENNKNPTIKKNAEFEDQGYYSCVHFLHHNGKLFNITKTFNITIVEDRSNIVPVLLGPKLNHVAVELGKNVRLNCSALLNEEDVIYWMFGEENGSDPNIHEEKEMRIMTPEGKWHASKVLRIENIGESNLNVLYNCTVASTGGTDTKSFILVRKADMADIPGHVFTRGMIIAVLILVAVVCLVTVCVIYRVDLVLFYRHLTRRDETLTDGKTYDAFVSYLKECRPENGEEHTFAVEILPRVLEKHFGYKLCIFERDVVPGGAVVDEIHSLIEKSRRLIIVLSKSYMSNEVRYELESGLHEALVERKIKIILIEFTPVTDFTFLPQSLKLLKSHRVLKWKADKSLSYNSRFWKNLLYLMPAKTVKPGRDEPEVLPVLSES
T2 sequence (looked up) 2: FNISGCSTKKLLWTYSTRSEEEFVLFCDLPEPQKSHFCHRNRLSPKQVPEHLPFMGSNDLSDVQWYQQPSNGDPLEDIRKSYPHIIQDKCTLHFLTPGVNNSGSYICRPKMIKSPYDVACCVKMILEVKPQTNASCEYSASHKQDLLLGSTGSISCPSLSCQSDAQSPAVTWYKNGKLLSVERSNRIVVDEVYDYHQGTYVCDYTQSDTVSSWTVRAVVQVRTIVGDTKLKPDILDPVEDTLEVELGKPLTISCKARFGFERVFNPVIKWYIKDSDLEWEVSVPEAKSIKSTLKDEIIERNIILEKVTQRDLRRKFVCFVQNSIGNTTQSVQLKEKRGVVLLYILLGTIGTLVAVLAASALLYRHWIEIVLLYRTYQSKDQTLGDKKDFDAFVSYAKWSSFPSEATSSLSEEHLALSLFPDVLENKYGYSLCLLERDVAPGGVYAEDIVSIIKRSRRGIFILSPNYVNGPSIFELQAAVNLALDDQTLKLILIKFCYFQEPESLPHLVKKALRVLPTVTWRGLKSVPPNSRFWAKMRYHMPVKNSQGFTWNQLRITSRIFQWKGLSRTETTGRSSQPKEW

B1: recombinant Human Fc gamma RI/CD64 Protein (R&D systems, 1257-FC-050) (receptor)
chain: QVDTTKAVITLQPPWVSVFQEETVTLHCEVLHLPGSSSTQWFLNGTATQTSTPSYRITSASVNDSGEYRCQRGLSGRSDPIQLEIHRGWLLLQVSSRVFTEGEPLALRCHAWKDKLVYNVLYYRNGKAFKFFHWNSNLTILKTNISHNGTYHCSGMGKHRYTSAGISVTVKELFPAPVLNASVTSPLLEGNLVTLSCETKLLLQRPGLQLYFSFYMGSKTLRGRNTSSEYQILTARREDSGLYWCEAATEDGNVLKRSPELELQVLGLQLPTP
notes: detected with an anti-His antibody; tag not described; also called FcγRI/CD64; human Fc gamma receptor I

Columns and labels:
human IL-18BP-His = biological target: T1, human IL-18BP-His; test: AlphaLISA of free IL-18BP
Experimental: The plate is incubated further for 1 hr at room temperature. Under subdued light, 12.5 µL of 2× streptavidin (SA) donor beads are pipetted into each well, and the wells are incubated with shaking for an additional 30 min at room temperature. The AlphaLisa signal is then measured on an Enspire plate reader with 680 and 615 nm as excitation and emission wavelengths, respectively. The dissociation constant (K_D) is calculated based on a variable slope, four parameter analysis using GraphPad PRISM software.

[1] = biological target: T2, IL-18 receptor (IL-18Rα/IL-18Rβ) on …; test: cell-based or functional assay
[2] = biological target: T2, IL-18 receptor (IL-18Rα/IL-18Rβ) on …; test: cell-based or functional assay; remark: listed apart in the source
[3] = biological target: T2, IL-18 receptor (IL-18Rα/IL-18Rβ) on …; test: cell-based or functional assay; remark: listed apart in the source
[4] = biological target: T3, recombinant biotinylated human FcRn (human, UniProt P55899 24-297; P61769 21-119, limits assumed, biotinylated); test: AlphaLISA competition at pH 6; competitor: human IgG on acceptor beads
T3 construct: also called human neonatal Fc receptor (FcRn)
Experimental: The interaction of the unmodified and of conjugated anti-PD1 antibodies with the human neonatal Fc receptor (FcRn) at pH 6 was measured using the AlphaLISA® Human FcRn Binding Kit (AL3095C) from Perkin Elmer (Schwerzenbach, Switzerland).
After 90 min at 23° C. in the dark, AlphaLISA® signal was measured on an EnSpire plate reader (Excitation at 680 nm, Emission at 615 nm) from Perkin Elmer (Schwerzenbach, Switzerland). Binding Affinity of Reference Antibodies and Immunocytokines with the Human Neonatal Fc Receptor as Measured by AlphaLISA

[5] = biological target: T4, Composition B (Atezolizumab/Tecentriq conjugated to IL-18 polypeptide of SEQ ID NO: 30) (human, UniProt P0DOX5 2-449 = IgG part; P0DOX7 1-214; Q14116 37-193, chemical linker to the antibody; site not stated for this composition; chemical linker to IL-18; site not stated for this composition); test: ELISA; immunocytokine coated, receptor titrated, anti-His-HRP
T4 construct: immunocytokine
Experimental: (§1) The interaction of the unmodified and of conjugated antibodies with human Fc gamma receptors I (FcγRI/CD64), with human Fc gamma receptors IIa (FcγRIIa/CD32a), with inhibitory human Fc gamma receptors IIb (FcγRIIb/CD32b), and with human Fc gamma receptors III FcγRIIIa/CD16 were measured by ELISA.
Briefly, Corning high-binding half-area plates (Fisher Scientific, Reinach, Switzerland) were coated overnight at 4° C. with 25 μl of unmodified and of conjugated anti-PD1 antibodies at 2.5 μg/ml in PBS. Plates were then washed four times with 100 μl of PBS-0.02% Tween20. Plates surfaces were blocked with 25 μl of PBS-0.02% Tween20-1% BSA at 37° C. during 1 h. Plates were then washed four times with 100 μl of PBS-0.02% Tween20. […] ELISA signal was then measured at 450 nm on an EnSpire plate reader from Perkin Elmer (Schwerzenbach, Switzerland). Binding Affinity of Reference Antibodies and Immunocytokines with Human Fc Gamma Receptors as Measured by ELISA

[6] = biological target: T5, recombinant Human Fc gamma RIIIA/CD16a Protein (R&D systems, 4325-FC-050) (human, UniProt P08637 17-208); test: ELISA; antibody coated, receptor titrated, anti-His-HRP
T5 construct: detected with an anti-His antibody; tag and allotype not described; also called FcγRIIIa (CD16)
Experimental: as §1
(§2) Briefly, Corning high-binding half-area plates (Fisher Scientific, Reinach, Switzerland) were coated overnight at 4° C. with 25 μl of unmodified and of conjugated anti-PD1 antibodies at 2.5 μg/ml in PBS. Plates were then washed four times with 100 μl of PBS-0.02% Tween20. Plates surfaces were blocked with 25 μl of PBS-0.02% Tween20-1% BSA at 37° C. during 1 h. Plates were then washed four times with 100 μl of PBS-0.02% Tween20. Then twenty-five microliters of either recombinant Human Fc gamma RI/CD64 Protein (R&D systems, 1257-FC-050, CF), recombinant Human Fc gamma RIIA/CD32a (H167) Protein (R&D systems, 9595-CD-050, CF), recombinant Human Fc gamma RIIB/CD32b Avi-tag Protein (R&D systems, AVI1875-050, CF), or recombinant Human Fc gamma RIIIA/CD16a Protein (R&D systems, 4325-FC-050; CF) were added in five-fold serial dilutions ranging from 1000 nM to 0.001 nM into PBS-0.02% Tween20-0.1% BSA and incubated at 37° C. during 2 h. Plates were then washed four times with 100 μl of PBS-0.02% Tween20. Twenty-five microliters of a 1/500 HRP-anti-His antibody in PBS—0.02% Tween20-0.1% BSA (R&D systems, anti-HIS—HRP Ab, #MAB050H) were added to each well and plates were incubated at Room Temperature during 1 h. Plates were then washed four times with 100 μl of PBS-0.02% Tween20. Fifty microliters of TMB substrate reagent (#CL07, Merck, Buchs, Switzerland) were added to each well and incubated at 37° C. during 5 min. After 5 min at 37° C., Horseradish peroxidase reaction was stopped by adding 50 μl/well of 0.5M H2SO4 stop solution. ELISA signal was then measured at 450 nm on an EnSpire plate reader from Perkin Elmer (Schwerzenbach, Switzerland). Binding Affinity of Reference Antibodies and Immunocytokines with Human Fc Gamma Receptors as Measured by ELISA

[7] = biological target: B1; test: as above
Experimental: as §1, §2

| Binder | Kd (human IL-18BP-His) | EC50, HEK-Blue IL18R reporter cells [1] | EC50, IFNγ stimulation, NK92 cells [2] | also measured |
| --- | --- | --- | --- | --- |
| IL-18 polypeptide of SEQ ID NO: 54 (E06K, K53A, C38S, C68S, C76S, C127S, K70C) (ligand) YFGKLKSKLSVIRNLNDQVLFIDQGNRPLFEDMTDSDSRDNAPRTIFIISMYADSQPRGMAVTISVKSECISTLSSENKIISFKEMNPPDNIKDTKSDIIFFQRSVPGHDNKMQFESSSYEGYFLASEKERDLFKLILKKEDELGDRSIMFTVQNED | 446 nM | 9.12 pM | 0.962 nM | – |
| Composition E (LZM-009 conjugated to IL-18 polypeptide of SEQ ID NO: 60) (other, chemical linker to the antibody; chemical linker to IL-18) VH: QVQLVQSGAEVKKPGASVKVSCKASGYTFTSYYMYWVRQAPGQGLEWMGGVNPSNGGTNFNEKFKSRVTITADKSTSTAYMELSSLRSEDTAVYYCARRDYRYDMGFDYWGQGTTVTVSS VL: EIVLTQSPATLSLSPGERATISCRASKGVSTSGYSYLHWYQQKPGQAPRLLIYLASYLESGVPARFSGSGSGTDFTLTISSLEPEDFATYYCQHSRELPLTFGTGTKVEIK YFGKLKSKLSVIRNLNDQVLFIDQGNRPLFEDMTDSDQRDNAPRTIFIISMYADSQPRGMAVTISVKCEKISTLSCENKIISFKEMNPPDNIKDTKSDIIFFQRSVPGHDNKMQFESSSYEGYFLACEKERDLFKLILKKEDELGDRSIMFTVQNED | – | – | – | EC50, IFNγ secretion, NK92 cells [3]: 0.056 nM |
| IL-18 polypeptide of SEQ ID NO: 59 (E6K, C38A, K53A) (ligand) YFGKLKSKLSVIRNLNDQVLFIDQGNRPLFEDMTDSDARDNAPRTIFIISMYADSQPRGMAVTISVKCEKISTLSCENKIISFKEMNPPDNIKDTKSDIIFFQRSVPGHDNKMQFESSSYEGYFLACEKERDLFKLILKKEDELGDRSIMFTVQNED | 36 nM | 0.268 pM | 0.015 nM | – |
| IL-18 polypeptide of SEQ ID NO: 60 (E6K, C38Q, K53A) (ligand) YFGKLKSKLSVIRNLNDQVLFIDQGNRPLFEDMTDSDQRDNAPRTIFIISMYADSQPRGMAVTISVKCEKISTLSCENKIISFKEMNPPDNIKDTKSDIIFFQRSVPGHDNKMQFESSSYEGYFLACEKERDLFKLILKKEDELGDRSIMFTVQNED | 24.8 nM | 0.203 pM | 0.006 nM | EC50, IFNγ secretion, NK92 cells [3]: 0.008 nM |
| IL-18 polypeptide of SEQ ID NO: 62 (E6K, C38A, K53A, C127A) (ligand) YFGKLKSKLSVIRNLNDQVLFIDQGNRPLFEDMTDSDARDNAPRTIFIISMYADSQPRGMAVTISVKCEKISTLSCENKIISFKEMNPPDNIKDTKSDIIFFQRSVPGHDNKMQFESSSYEGYFLAAEKERDLFKLILKKEDELGDRSIMFTVQNED | 69.6 nM | 0.17 pM | 0.026 nM | – |
| IL-18 polypeptide of SEQ ID NO: 57 (E6K, C38S, K53A) (ligand) YFGKLKSKLSVIRNLNDQVLFIDQGNRPLFEDMTDSDSRDNAPRTIFIISMYADSQPRGMAVTISVKCEKISTLSCENKIISFKEMNPPDNIKDTKSDIIFFQRSVPGHDNKMQFESSSYEGYFLACEKERDLFKLILKKEDELGDRSIMFTVQNED | 50.2 nM | 0.86 pM and 0.53 pM | 0.045 nM | – |
| Avelumab/Bavencio (antibody, human IgG1, lambda, also called MSB-0010718C) heavy: not shown light: QSALTQPASVSGSPGQSITISCTGTSSDVGGYNYVSWYQQHPGKAPKLMIYDVSNRPSGVSNRFSGSKSGNTASLTISGLQAEDEADYYCSSYTSSSTRVFGTGTKVTVLGQPKANPTVTLFPPSSEELQANKATLVCLISDFYPGAVTVAWKADGSPVKAGVETTKPSKQSNNKYAASSYLSLTPEQWKSHRSYSCQVTHEGSTVEKTVAPTECS | – | – | – | Kd [4]: 5.36 nM |
| B1 | – | – | – | Kd [5]: 10.8 nM |
| Pembrolizumab/Keytruda (antibody, human IgG4 S228P, kappa, also called Lambrolizumab; MK-3475) heavy: not shown light: EIVLTQSPATLSLSPGERATLSCRASKGVSTSGYSYLHWYQQKPGQAPRLLIYLASYLESGVPARFSGSGSGTDFTLTISSLEPEDFAVYYCQHSRDLPLTFGGGTKVEIKRTVAAPSVFIFPPSDEQLKSGTASVVCLLNNFYPREAKVQWKVDNALQSGNSQESVTEQDSKDSTYSLSSTLTLSKADYEKHKVYACEVTHQGLSSPVTKSFNRGEC | – | – | – | Kd [4]: 7.45 nM; Kd [6]: 1660 nM; Kd [7]: 0.593 nM |
